Data on 91 sequences can be found in the supplement of paper PMC9112550, “Optimization of the antimicrobial peptide Bac7 by deep mutational scanning” (BMC Biology, 2022).

This data set relates to Escherichia coli TOP10. In words: shrunken log2 fold change of peptide-encoding DNA abundance (4.5 h post-induction vs induction); higher = less antimicrobial activity (less host growth inhibition). The settings on record: time post-induction: 4.5 h; library: site-saturation at positions 5, 18, 19, 20.
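Further: peptides expressed intracellularly from a pBAD plasmid library in pooled LB shake-flask culture, induced with 0.3% L-arabinose, DNA abundance read by NGS, three biological replicates, DESeq2 with apeglm shrinkage.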

RRIRFRPPRLPRPRPRPSTTPRP: the “shrunken log2 fold change” value was -0.362.

With RRIRIRPPRLPRPRPRPDHPPRP, the “shrunken log2 fold change” value is -0.266.

Turning to RRIRIRPPRLPRPRPRPFTGPRP, the “shrunken log2 fold change” value was -1.27.

For the sequence RRIRQRPPRLPRPRPRPCHEPRP, the “shrunken log2 fold change” value was -0.0663.

On to RRIRPRPPRLPRPRPRPTPNPRP, for which the “shrunken log2 fold change” value stood at 0.579.

On to RRIRRRPPRLPRPRPRPTRNPRP, for which the “shrunken log2 fold change” value stood at 0.853.

Regarding RRIRMRPPRLPRPRPRPKTYPRP, the “shrunken log2 fold change” value is -0.0099.

With RRIRARPPRLPRPRPRPAETPRP, the “shrunken log2 fold change” value was determined as 0.398.

For RRIRWRPPRLPRPRPRPPAIPRP, the “shrunken log2 fold change” value was 0.178.

With RRIRTRPPRLPRPRPRPHEAPRP, the “shrunken log2 fold change” value was -0.0062.

For RRIRCRPPRLPRPRPRPYLQPRP, the “shrunken log2 fold change” value was -0.144.

In the case of RRIRSRPPRLPRPRPRPGFVPRP, the “shrunken log2 fold change” value was 0.287.

RRIRARPPRLPRPRPRPHSQPRP: the “shrunken log2 fold change” value worked out at 0.0561.

On to RRIRDRPPRLPRPRPRPEYAPRP, for which the “shrunken log2 fold change” value turned out to be 0.815.

In the case of RRIRHRPPRLPRPRPRPGFNPRP, the “shrunken log2 fold change” value was -0.0117.

RRIRQRPPRLPRPRPRPQMAPRP: the “shrunken log2 fold change” value was -0.065.

For the sequence RRIRYRPPRLPRPRPRPLKQPRP, the “shrunken log2 fold change” value is -0.0485.

Take RRIRQRPPRLPRPRPRPRMVPRP: the “shrunken log2 fold change” value was 0.166.

For the sequence RRIRCRPPRLPRPRPRPSYNPRP, the “shrunken log2 fold change” value is -0.816.

Consider RRIRMRPPRLPRPRPRPINEPRP, for which the “shrunken log2 fold change” value is -0.0839.

As to RRIRGRPPRLPRPRPRPVFNPRP, the “shrunken log2 fold change” value was 0.155.

For the sequence RRIRFRPPRLPRPRPRPAWFPRP, the “shrunken log2 fold change” value was found to be 0.122.

For RRIRLRPPRLPRPRPRPPHEPRP, the “shrunken log2 fold change” value worked out at 0.269.

As to RRIRARPPRLPRPRPRPERIPRP, the “shrunken log2 fold change” value was 0.155.

As for RRIRLRPPRLPRPRPRPSLFPRP, the “shrunken log2 fold change” value is -0.373.

On to RRIRARPPRLPRPRPRPMAMPRP, for which the “shrunken log2 fold change” value was 0.282.

As for RRIRMRPPRLPRPRPRPTCTPRP, the “shrunken log2 fold change” value stood at 0.963.

As for RRIRTRPPRLPRPRPRPCIVPRP, the “shrunken log2 fold change” value was -0.164.

For the sequence RRIRHRPPRLPRPRPRPFISPRP, the “shrunken log2 fold change” value is -0.387.

Regarding RRIRLRPPRLPRPRPRPEWLPRP, the “shrunken log2 fold change” value is 0.315.

As to RRIRRRPPRLPRPRPRPRCFPRP, the “shrunken log2 fold change” value was determined as 0.474.

In the case of RRIRIRPPRLPRPRPRPQMTPRP, the “shrunken log2 fold change” value was -0.733.

For the sequence RRIRSRPPRLPRPRPRPGTEPRP, the “shrunken log2 fold change” value was determined as 0.0221.

As for RRIRDRPPRLPRPRPRPRKVPRP, the “shrunken log2 fold change” value amounted to 0.187.

Consider RRIRYRPPRLPRPRPRPNFQPRP, for which the “shrunken log2 fold change” value is -0.578.

With RRIRNRPPRLPRPRPRPMTMPRP, the “shrunken log2 fold change” value was 0.0125.

As for RRIRRRPPRLPRPRPRPEGGPRP, the “shrunken log2 fold change” value was 0.103.

Regarding RRIRHRPPRLPRPRPRPQHLPRP, the “shrunken log2 fold change” value is -0.358.

In the case of RRIRCRPPRLPRPRPRPWHGPRP, the “shrunken log2 fold change” value was -0.244.

With RRIRFRPPRLPRPRPRPATWPRP, the “shrunken log2 fold change” value stood at 0.317.

With RRIRGRPPRLPRPRPRPRRSPRP, the “shrunken log2 fold change” value came out at 0.767.

As for RRIRPRPPRLPRPRPRPPDGPRP, the “shrunken log2 fold change” value was 0.067.

For RRIRSRPPRLPRPRPRPGVHPRP, the “shrunken log2 fold change” value was -0.035.

In the case of RRIRDRPPRLPRPRPRPVDWPRP, the “shrunken log2 fold change” value stood at 0.812.

On to RRIRLRPPRLPRPRPRPDISPRP, for which the “shrunken log2 fold change” value worked out at 0.0207.

RRIRARPPRLPRPRPRPTANPRP: the “shrunken log2 fold change” value was found to be 0.401.

Turning to RRIRSRPPRLPRPRPRPYSPPRP, the “shrunken log2 fold change” value is -0.839.

Take RRIRARPPRLPRPRPRPCIVPRP: the “shrunken log2 fold change” value was -0.233.

On to RRIRWRPPRLPRPRPRPRDLPRP, for which the “shrunken log2 fold change” value was determined as 0.276.

As to RRIRARPPRLPRPRPRPLLAPRP, the “shrunken log2 fold change” value was 0.949.

On to RRIRLRPPRLPRPRPRPAFWPRP, for which the “shrunken log2 fold change” value stood at 0.292.

In the case of RRIRFRPPRLPRPRPRPDWNPRP, the “shrunken log2 fold change” value is -0.287.

Turning to RRIRGRPPRLPRPRPRPHCDPRP, the “shrunken log2 fold change” value was determined as 3.63.

Turning to RRIRLRPPRLPRPRPRPDMYPRP, the “shrunken log2 fold change” value was -0.0404.

As for RRIRVRPPRLPRPRPRPIEPPRP, the “shrunken log2 fold change” value was -0.065.

Take RRIRCRPPRLPRPRPRPKTAPRP: the “shrunken log2 fold change” value was 0.39.

In the case of RRIRQRPPRLPRPRPRPCKNPRP, the “shrunken log2 fold change” value was -0.409.

As to RRIRIRPPRLPRPRPRPQLDPRP, the “shrunken log2 fold change” value was -0.138.

In the case of RRIRFRPPRLPRPRPRPKNFPRP, the “shrunken log2 fold change” value worked out at 0.0482.

On to RRIRNRPPRLPRPRPRPLDFPRP, for which the “shrunken log2 fold change” value was -0.386.

With RRIRARPPRLPRPRPRPETRPRP, the “shrunken log2 fold change” value is 0.662.

For the sequence RRIRGRPPRLPRPRPRPIICPRP, the “shrunken log2 fold change” value worked out at 0.026.

Turning to RRIRFRPPRLPRPRPRPKFCPRP, the “shrunken log2 fold change” value is 0.00718.

Take RRIRIRPPRLPRPRPRPDPLPRP: the “shrunken log2 fold change” value was -0.326.

RRIRSRPPRLPRPRPRPPVPPRP: the “shrunken log2 fold change” value is 0.378.

For the sequence RRIRFRPPRLPRPRPRPFNTPRP, the “shrunken log2 fold change” value was -0.688.

As for RRIRNRPPRLPRPRPRPVFMPRP, the “shrunken log2 fold change” value is -0.181.

For the sequence RRIRARPPRLPRPRPRPADNPRP, the “shrunken log2 fold change” value amounted to 0.383.

Take RRIRRRPPRLPRPRPRPTPSPRP: the “shrunken log2 fold change” value turned out to be 0.772.

On to RRIRCRPPRLPRPRPRPCHTPRP, for which the “shrunken log2 fold change” value was determined as 0.00624.

Turning to RRIRDRPPRLPRPRPRPNWHPRP, the “shrunken log2 fold change” value amounted to 0.144.

Turning to RRIRERPPRLPRPRPRPWCQPRP, the “shrunken log2 fold change” value is -0.0135.

For the sequence RRIRKRPPRLPRPRPRPNGLPRP, the “shrunken log2 fold change” value was -0.0579.

RRIRNRPPRLPRPRPRPSGIPRP: the “shrunken log2 fold change” value is -0.983.

Regarding RRIRCRPPRLPRPRPRPHWRPRP, the “shrunken log2 fold change” value was found to be 0.382.

As for RRIRVRPPRLPRPRPRPGDWPRP, the “shrunken log2 fold change” value worked out at 0.432.

Take RRIRTRPPRLPRPRPRPGRKPRP: the “shrunken log2 fold change” value is 0.282.

Consider RRIRPRPPRLPRPRPRPHHDPRP, for which the “shrunken log2 fold change” value is -0.266.

For the sequence RRIRRRPPRLPRPRPRPAQCPRP, the “shrunken log2 fold change” value is 0.152.

As to RRIRKRPPRLPRPRPRPATWPRP, the “shrunken log2 fold change” value is 0.573.

As for RRIRWRPPRLPRPRPRPRFPPRP, the “shrunken log2 fold change” value is 0.304.

For the sequence RRIRGRPPRLPRPRPRPFGVPRP, the “shrunken log2 fold change” value came out at 0.446.

With RRIRFRPPRLPRPRPRPRQIPRP, the “shrunken log2 fold change” value is 0.0287.

For RRIRYRPPRLPRPRPRPYCHPRP, the “shrunken log2 fold change” value was -0.435.

Regarding RRIRHRPPRLPRPRPRPREGPRP, the “shrunken log2 fold change” value came out at 0.264.

Consider RRIRQRPPRLPRPRPRPAYYPRP, for which the “shrunken log2 fold change” value is -0.514.

Turning to RRIRERPPRLPRPRPRPIIIPRP, the “shrunken log2 fold change” value was -0.0562.

Regarding RRIRRRPPRLPRPRPRPDHTPRP, the “shrunken log2 fold change” value is -0.447.

As for RRIRLRPPRLPRPRPRPWRFPRP, the “shrunken log2 fold change” value turned out to be 0.271.

For RRIRARPPRLPRPRPRPRWTPRP, the “shrunken log2 fold change” value is 0.145.

Consider RRIRGRPPRLPRPRPRPGNFPRP, for which the “shrunken log2 fold change” value is -0.00767.
